Data as given in the supplement of paper PMC12338614.

B1: library; numbered along this chain (parent)
chain: MEVVDPQQLGMFTEGELMSVGMDTFIHRIDSTEVIYQPRRKRAKLIGKYLMGDLLGEGSYGKVKEVLDSETLCRRAVKILKKKKLRRIPNGEANVKKEIQLLRRLRHKNVIQLVDVLYNEEKQKMYMVMEYCVCGMQEMLDSVPEKRFPVCQAHGYFCQLIDGLEYLHSQGIVHKDIKPGNLLLTTGGTLKISDLGVAEALHPFAADDTCRTSQGSPAFQPPEIANGLDTFSGFKVDIWSAGVTLYNITTGLYPFEGDNIYKLFENIGKGSYAIPGDCGPPLSDLLKGMLEYEPAKRFSIRQIRQHSWFRKKHPPAEAPVPIPPSPDTKDRWRSMTVVPYLEDLHGADEDEDLFDIEDDIIYTQDFTVPGQVPEEEASHNGQRRGLPKAVCMNGTEAAQLSTKSRAEGRAPNPARKACSASSKIRRLSACKQQ

Variants of: B1
Assay: STK11 functional score (HeLa growth suppression), rescaled enrichment; synonymous median = 1, nonsense median = 0 (normalised score)
Conditions: with HeLa; variant type: missense
Description: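 Deep mutational scan (TileSeq/POPCode codon randomisation) of full-length codon-optimised STK11 cDNA integrated at a Bxb1 landing pad (AAVS1) in HeLa cells. Restoring functional STK11 suppresses HeLa proliferation. Variant frequencies were measured by NGS before and after about two weeks of growth. The error-corrected enrichment log-ratio was rescaled so that synonymous median = 1 and nonsense median = 0, scores above 1 were compressed, and codon-level and three biological replicate scores were combined; error is the bootstrapped standard error. Scale: synonymous median = 1, nonsense median = 0; below 0.5 = damaging.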

STK11 functional score, by site and new letter:
L54: P 1.21, A 0.975, S 1.2, R 0.812, K 1.61, M 1.1, F 0.99, D 1.14, H 1.15, N 1.64, T 1.47, V 0.645, G 1.22, W 0.575, I 0.71, Y 1.47
M51: S 0.844, A 1.45, L 0.806, I 1.16, K 1.32, T 1.21, W 0.189, Y 1.62, R 1.16, P 1.66, H 1.68, Q 1.66, G 1.1, V 0.725
L55: G 1.53, H 1.43, Q 1.59, W 0.491, R 1.21, C 1.43, M 0.938, V 0.737, I 1.39, F -0.181, P 1.23, D 1.31, A 0.122, S 0.693
L50: T 1.29, V 0.846, A 1.52, C 1.41, R 1.47, H 1.08, G 0.949, D 1.39, M 0.814, I 1.62, P 0.95, S 1.09, W 0.44
L67: A 0.924, V 0.884, P 0.0421, T 0.53, R 0.719, Y 0.0744, G 0.725, D 0.672, H 0.361, W 0.675
V66: G 0.814, L 1.1, K 1.4, Y 1.12, P 0.219, Q 1.08, C 1.46, M -0.0689, N 0.393, T 1.12, D 0.0679, A 1.4, S 0.975, H 1.37, R -0.0455, E 0.0829, I 0.557, F 0.608, W 0.62
S59: I 1.31, N 1.45, L 1.56, T 1.32, A 1.19, W 0.719, H 1.09, G 1.65, V 1.55, D 0.937, E 1.42, F 0.672, Q 1.63, R 1.5, C 0.952
G58: F 0.0123, M 0.219, P 0.174, L -0.188, I -0.159, E 1.04, A 0.935, V -0.308, R -0.318, W 0.24, C 0.374, Y -0.201, S 0.988, N 0.559
D53: S 1.51, E 0.779, R 1.58, W 0.204, A 1.07, H 1.23, M 0.483, P 1.52, V 0.606, Y 1.38, C 1.1, G 0.726, L 0.555
E65: Q 1.18, P 0.657, W 1.36, M 0.457, N 1.06, Y 1.05, R 0.846, G 0.154, F 1.22, L 0.5, S 1.55, H 1.36, C 1.07, D 1.34, V 0.734, I 0.756
C73: A 1.69, D 1.49, G 1, T 1.6, L 1.19, I 0.566, S 1.38, Y 0.412, P 0.227, R 1.21, F 0.572, M 1.7, E 1.7, V 1.55, W 0.426
G52: S 1.53, I 1.64, L 1.37, M -0.407, A 0.893, C 1.49, F 1.63, V 1.1
L72: K 1.08, M 0.649, H 0.0684, D 1.51, S 0.585, A 0.81, T 1.44, Q 1.26, V 1.16, W 1.08, R 0.386, Y 1.04, I 1.19, G 1.44, N 0.264
G61: V 0.688, A 1.35, M 0.0916, P 0.916, Q 0.913, R 0.216, S 0.916, H 1.41, L 0.588, E 0.195, Y 0.11, W 0.248, C 1.13
K62: A 1.7, W 1.38, G 1.23, N 1.6, R 1.61, T 1.7, Q 1.56, V 1.61, S 1.39, Y 1.31, D 1.61, L 1.35, I 1.35, C 1.4
R74: C 1.11, A 0.0507, K 1.11, H 1.6, F 0.896, I 1.15
Y49: W 1.01
S69: A 1.14, E 1.23, M 0.689, W 0.118, Q 0.0756, H 0.304, G 1.69, L 1.24, P 1.04, V 0.644, K 1.31, R 1.1
T71: I 1.11, Q 1.58, A 1.48, C 1.33, M 0.604, P 0.376, N 0.961, S 0.618, L 0.974, F 1.17, R 0.849, W 1.13, D 1.46, V 1.04, E 1.37, G 1.48
D68: Y -0.0799, Q 0.949, V 0.366, L 0.441, R 1.07, W 0.944, P 1.08, N 1.31, A 0.846, G 1.08, S 1.29
E57: K 1.12, P 1.62, Y 0.95, A 1.15, W 0.873, G 1.08, M 1.26, I 1.15, T 1.69, D 0.893, S 1.17, V 0.968, Q 1.06, H 1.53, R 1.13, F 0.821, L 0.946
E70: R 1.67, P -0.12, D 1.05, G 0.582, C 1.39, Q 0.703, L 1.03, V 1.28, I 1.54, S 0.896, Y 1.14, A 1.43
V63: C 1.4, S 1.27, M 0.802, I 1.45, R -0.0566, N 1.14, G 0.711, D -0.044, E 0.189, L 0.458, W 0.213, Q 0.451
K64: N 0.93, P 0.931, Y 1.39, L 1.54, A 1.59, Q 1.58, C 0.813, S 1.53, G 0.436, W 1.39, R 1.4, V 1.38, T 1.08
G56: P 0.136, V 0.273, L 0.359, T 0.231, I 0.188, F 0.171, S 0.788, E 1.13, M 1, R 0.136, C 0.475, A 0.838, Q -0.0947, W -0.159, H 0.0953, Y -0.102
Y60: C 0.482, I 1.23, R 1.51, V 0.694, S 1.48, L 0.748, N 0.674, M 1.64, W 1.58
